{"source": "patent US20260207707A1", "about": "(UNIVERSITY OF CHICAGO, published 2026)", "key": {"[1]": {"molecular_target": "recombinant peptide corresponding to aa 214-231 of human CD95"}, "[2]": {"molecular_target": "T1, recombinant human C-terminal CD95 (aa 212-335)", "T1 chain": "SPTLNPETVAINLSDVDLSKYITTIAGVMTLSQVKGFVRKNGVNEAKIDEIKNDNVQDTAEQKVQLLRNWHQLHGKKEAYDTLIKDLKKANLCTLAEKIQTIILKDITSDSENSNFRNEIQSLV"}, "[3]": {"molecular_target": "T2, eosinophil cationic protein (ECP), P12724", "T2 chain": "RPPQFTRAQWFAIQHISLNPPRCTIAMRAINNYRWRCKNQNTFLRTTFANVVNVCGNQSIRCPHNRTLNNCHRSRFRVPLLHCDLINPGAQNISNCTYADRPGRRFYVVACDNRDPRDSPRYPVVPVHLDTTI"}, "[4]": {"molecular_target": "T3, recombinant human N-terminal CD95 (aa 1-173)", "T3 chain": "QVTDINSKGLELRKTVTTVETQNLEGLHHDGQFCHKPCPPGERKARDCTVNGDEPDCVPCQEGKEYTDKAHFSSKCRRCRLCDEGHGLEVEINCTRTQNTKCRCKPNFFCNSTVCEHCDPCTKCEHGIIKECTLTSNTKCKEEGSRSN"}, "[5]": {"molecular_target": "recombinant peptide corresponding to aa 317-335 of human CD95"}, "[6]": {"molecular_target": "T4, neutrophil elastase (ELANE) (human, UniProt P08246 30-247, limits assumed)", "T4 construct": "Purified ELANE; In the co-immunoprecipitation it is the native protein in human PMN media; also called human ELANE", "T4 sequence (looked up)": "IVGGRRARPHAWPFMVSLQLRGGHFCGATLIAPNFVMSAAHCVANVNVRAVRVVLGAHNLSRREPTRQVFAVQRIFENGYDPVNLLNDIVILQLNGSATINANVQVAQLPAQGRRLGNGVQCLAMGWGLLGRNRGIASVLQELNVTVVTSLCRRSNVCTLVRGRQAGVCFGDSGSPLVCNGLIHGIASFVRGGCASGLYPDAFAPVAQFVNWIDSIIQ", "assay": "enzyme kinetics: ELANE (10 nM) chromogenic substrate activity with ECP 0-180 nM, curve fitting", "procedure": "Catalytic activity was measured using the chromogenic substrate N-Methoxysuccinyl-Ala-Ala-Pro-Val p-nitroanilide (Sigma, 100 μg/mL) according to manufacturer's protocol. Absorbance was measured at 405 nm using an accuSkan GO UV/Vis microplate spectrophotometer (ThermoFisher Scientific). […] Residual PMSF was eliminated with a PD-10 desalting column (GE Healthcare Life)."}}}
{"binder": "neutrophil elastase (ELANE) (protein) IVGGRRARPHAWPFMVSLQLRGGHFCGATLIAPNFVMSAAHCVANVNVRAVRVVLGAHNLSRREPTRQVFAVQRIFENGYDPVNLLNDIVILQLNGSATINANVQVAQLPAQGRRLGNGVQCLAMGWGLLGRNRGIASVLQELNVTVVTSLCRRSNVCTLVRGRQAGVCFGDSGSPLVCNGLIHGIASFVRGGCASGLYPDAFAPVAQFVNWIDSIIQ", "values": [{"measurement": "cleavage of peptide monitored by mass spectrometry", "setting": "[1]", "value": "studies with synthetic peptides validated these findings"}, {"measurement": "cleavage of recombinant protein (SDS-PAGE, Coomassie blue)", "setting": "[2]", "value": "ELANE preferentially cleaved the C-terminal domain"}, {"measurement": "catalytic turnover (kcat) of ELANE", "setting": "[3]", "value": "increases its catalytic turnover (kcat) by ~12-fold"}, {"measurement": "cleavage of recombinant protein (SDS-PAGE, Coomassie blue)", "setting": "[4]", "value": "ELANE preferentially cleaved the C-terminal domain"}, {"measurement": "cleavage of peptide monitored by mass spectrometry", "setting": "[5]", "value": "studies with synthetic peptides validated these findings"}]}
{"binder": "eosinophil cationic protein (ECP) (other, human, UniProt P12724 28-160, looked up, Identified by proteomics in media conditioned by human PMNs) RPPQFTRAQWFAIQHISLNPPRCTIAMRAINNYRWRCKNQNTFLRTTFANVVNVCGNQSIRCPHNRTLNNCHRSRFRVPLLHCDLINPGAQNISNCTYADRPGRRFYVVACDNRDPRDSPRYPVVPVHLDTTI", "values": [{"measurement": "Kd", "setting": "[6]", "value": 17, "unit": "nM"}]}
